# Reference: article PMC12871931 (2025)
# Ends that are not written are not given here. * marks the point of attachment. 5‑TAMRA = 5-carboxytetramethylrhodamine, N-terminal label, CN(C)c1ccc2c(-c3ccc(C(=O)*)cc3C(=O)[O-])c3ccc(N(C)C)cc3[o+]c2c1
# What was measured:
# Experiment in all cases: FP
# [1] = biological target: importin α3 (IMPα3), Arabidopsis thaliana, recombinant (Arabidopsis thaliana, UniProt O04294 1-531)
# [2] = biological target: importin α1 (IMPα1), Arabidopsis thaliana, recombinant (Arabidopsis thaliana, UniProt Q96321 1-532)
# Chain of importin α1 (IMPα1), Arabidopsis thaliana, recombinant (Q96321 whole entry): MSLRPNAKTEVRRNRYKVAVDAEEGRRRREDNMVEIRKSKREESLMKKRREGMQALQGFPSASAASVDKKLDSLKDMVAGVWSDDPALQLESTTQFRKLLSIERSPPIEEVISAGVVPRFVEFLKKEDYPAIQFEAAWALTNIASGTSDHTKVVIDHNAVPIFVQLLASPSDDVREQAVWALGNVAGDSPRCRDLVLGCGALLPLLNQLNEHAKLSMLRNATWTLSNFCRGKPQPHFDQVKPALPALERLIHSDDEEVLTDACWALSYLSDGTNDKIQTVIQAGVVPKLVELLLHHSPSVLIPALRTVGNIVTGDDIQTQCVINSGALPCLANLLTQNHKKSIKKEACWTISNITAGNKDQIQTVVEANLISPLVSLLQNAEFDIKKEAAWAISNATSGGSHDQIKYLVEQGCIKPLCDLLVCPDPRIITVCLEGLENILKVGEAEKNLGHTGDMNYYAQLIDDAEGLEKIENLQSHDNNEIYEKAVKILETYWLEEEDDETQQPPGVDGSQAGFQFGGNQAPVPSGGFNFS
# [3] = biological target: importin α2 (IMPα2), Arabidopsis thaliana, recombinant (Arabidopsis thaliana, UniProt F4JL11 1-535)
# Chain of importin α2 (IMPα2), Arabidopsis thaliana, recombinant (F4JL11 whole entry): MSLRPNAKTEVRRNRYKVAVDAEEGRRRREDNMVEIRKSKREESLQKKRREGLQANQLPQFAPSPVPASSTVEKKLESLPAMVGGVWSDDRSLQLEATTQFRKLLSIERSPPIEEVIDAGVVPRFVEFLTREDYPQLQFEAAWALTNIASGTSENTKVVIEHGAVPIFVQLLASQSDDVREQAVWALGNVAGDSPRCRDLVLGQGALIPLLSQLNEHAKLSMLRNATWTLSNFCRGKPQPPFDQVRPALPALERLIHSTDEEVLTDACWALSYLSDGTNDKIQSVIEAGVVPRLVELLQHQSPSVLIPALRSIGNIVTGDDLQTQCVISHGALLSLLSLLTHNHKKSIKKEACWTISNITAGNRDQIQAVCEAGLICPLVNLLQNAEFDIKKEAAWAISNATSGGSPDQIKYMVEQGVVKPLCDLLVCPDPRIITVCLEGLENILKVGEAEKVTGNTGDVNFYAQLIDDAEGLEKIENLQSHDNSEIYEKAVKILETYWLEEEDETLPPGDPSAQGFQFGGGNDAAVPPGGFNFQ
# Chain of importin α3 (IMPα3), Arabidopsis thaliana, recombinant (O04294 whole entry): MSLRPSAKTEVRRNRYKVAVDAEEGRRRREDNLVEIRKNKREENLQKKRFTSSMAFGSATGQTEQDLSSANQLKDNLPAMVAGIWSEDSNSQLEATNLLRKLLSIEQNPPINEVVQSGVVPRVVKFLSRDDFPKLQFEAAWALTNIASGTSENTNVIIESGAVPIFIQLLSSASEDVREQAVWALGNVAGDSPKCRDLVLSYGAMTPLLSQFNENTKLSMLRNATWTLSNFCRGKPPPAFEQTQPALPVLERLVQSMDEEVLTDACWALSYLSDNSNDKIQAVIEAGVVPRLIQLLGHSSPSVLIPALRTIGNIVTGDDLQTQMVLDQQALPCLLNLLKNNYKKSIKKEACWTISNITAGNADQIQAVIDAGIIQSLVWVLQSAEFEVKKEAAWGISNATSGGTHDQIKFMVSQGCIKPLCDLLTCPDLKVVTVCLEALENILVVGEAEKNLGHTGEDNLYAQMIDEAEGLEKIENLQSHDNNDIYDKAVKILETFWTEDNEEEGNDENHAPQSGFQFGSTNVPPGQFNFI
binder,measurement,setting,value
"{5‑TAMRA}-LKRYKRRL [TAMRA‐NOP‐1 (EIN2 NLS peptide, N‐terminally labeled with 5‐TAMRA)]",Kd,[1],5.4 µM
same,Kd,[2],4.6 µM
same,Kd,[3],5.8 µM
